Reference: article PMC9040744 (mBio, 2022)

Target: JUNV GP1 (Junín virus GP1 glycoprotein, residues 87 to 232) (Junín virus (JUNV), strain XJ13 …, UniProt C1K9J9)
Test: crystal structure
Settings: both partners purified

B1: Fab fragment of NAb JUN1 (Fab, V domains shown)
VH: LVQSVETGGGLVRPGNSLKLSCVTSGFTFSNYQMHWLRQPPGKRLEWIAVITVKSDNYGANYVESVKGRFAISRDDSKSSVYLEMNRLREEDTATYFCSRSGIYDGYYAYAMDYWGQGTSVTVSS
VL: SVVMTQSQKFMSTSVGDRVSITCKASQIVGTSVAWYQQKAGQSPKLLIYWASTRHTGVPDRFTAGGSGTDFTLTITNVQSEDLADYFCQQYATYPLTFGSGTKLELK
notes: also called Fab JUN1; JUN1 Fab; source: HEK293T, heavy and light chains coexpressed, purified
binding result: binds
